Our source for the IFNγ secretion by CMV-specific T cells (ELISA), EC50 values is US20140294898A1.

The assay addresses human PD-L1 on cells (human) (UniProt Q9NZQ7). Briefly: cell-based or functional assay.

human PD-L1 on cells (human), sequence (Q9NZQ7 19-290): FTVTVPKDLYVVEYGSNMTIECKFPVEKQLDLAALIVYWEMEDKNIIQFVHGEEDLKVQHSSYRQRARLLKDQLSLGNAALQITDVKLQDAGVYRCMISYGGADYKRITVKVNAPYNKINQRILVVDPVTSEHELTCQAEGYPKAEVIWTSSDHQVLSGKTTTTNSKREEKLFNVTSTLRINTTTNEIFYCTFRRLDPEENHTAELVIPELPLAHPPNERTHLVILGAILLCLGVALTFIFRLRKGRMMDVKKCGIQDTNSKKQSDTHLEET

As to anti-PD-L1 antibody (MDX-1105), the IFNγ secretion by CMV-specific T cells (ELISA), EC50 turned out to be 0.6 nM.
